According to the supplement of paper PMC9170038:

System: MS2 coat protein
Test: apparent KD of MS2 coat protein; designed switch direction (-1 OFF switch, 1 ON switch): -1; higher = weaker reporter binding
Summary of the method: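 The reported apparent KD is a per-design median over clusters, from curve fits of normalised cluster fluorescence. Protein titrations used SNAP-549-labelled MS2 coat protein, doubled from 0.7 or 1.5 nM to 3 µM, in Tris-HCl pH 7.5 buffer with KCl, MgCl2, BSA, DTT, tRNA and Tween-20, with no input, 200 uM small-molecule ligand, or an oligonucleotide input. The RNA switches were transcribed on Illumina chips by stalled E. coli RNA polymerase.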

[1] = input ligand: microRNA oligo, concentration not stated
[2] = Eterna round: R95, input ligand: microRNA oligo, concentration not stated
[3] = Eterna round: R95, input ligand: FMN 200 uM
[4] = Eterna round: R95, input ligand: none

Sequence	apparent KD of MS2 coat protein (input ligand: FMN 200 uM) [nM]	apparent KD of MS2 coat protein [1] [nM]	apparent KD of MS2 coat protein (input ligand: none) [nM]	other results
UACCUGUAGGUAGGAUAUCAUUGCGAUUAGCUAUGAGAAGGACCACAUGAGGAUCACCCAUGUCUACUCAGGAACCGAAAGGUC [Fiskers ExNg1 - 1] (Eterna round: R96, puzzle: Exclusion NG 1)	13	10.4	17.3	–
ACAUGAGGAUCACCCAUGUUAUGUUGGGUACUAAAUUAUUCGUAGGAUAUCGUAGCUAGUUUGUGCGAGAAGGACGCAGUUUUU [JR_ExcNG3_Sub060] (Eterna round: R96, puzzle: Exclusion NG 3)	–	202	–	–
GACUAGUGAGGAUAUACUUGCAGUGUACCUCGGGUGAUCUCACUUGAGGAUCACCCAAGUAGAAGGCGCGAGGG [EX2 #23] (Eterna round: R97, puzzle: Exclusion 2)	13.1	–	18.3	–
UUUUAACAUGAGGAUCACCCAUGUGAGGAUAUCGUUAUUUUUAUUAAUAUUAAUAAAACGAGAAGGCACAUUUU [JMF 14] (puzzle: Exclusion 1)	–	–	–	apparent KD of MS2 coat protein [2]: 98.3 nM
GAGUGACAUGAGGAUCACCCAUGUGAGGAUAUCGGACGGACCAAAUUAACAAUAAUUGCGAGAAGGCACAUCGG [Exclusion 1 V14] (puzzle: Exclusion 1)	–	–	–	apparent KD of MS2 coat protein [2]: 52.1 nM
CCGAAUAAGCAGGAUAUCGUUUCGGAAACGAAACGAGAAGGGCUAACAUGAGGAUCACCCAUGUUCCUUAACGG [Mat - Exclusion 6 - Eli Mod - D77] (puzzle: Exclusion 6)	–	–	–	apparent KD of MS2 coat protein [3]: 23.9 nM; apparent KD of MS2 coat protein [2]: 18.3 nM; apparent KD of MS2 coat protein [4]: 18 nM
UGUUGUUACGCAGGAUAUGAGGAUCACCCAUAUUAGGAUAUCGAAAGAGAAGUUCUGAGGAUCACCCAGAAGGGCGGGUUAACA [pwkr exNG2 2xF5 2xFMN.35] (Eterna round: R96, puzzle: Exclusion NG 2)	117	37.8	53.2	–
ACAUGUCAUUGAGGAUAUUGCAAACAUGAGGAUCACCCAUGUAAACGGAUGCUCUUACGUGGGUUCGAGAAGGCGAUGUACAUU [Ex NG2 #93] (Eterna round: R96, puzzle: Exclusion NG 2)	930	39.8	242	–
ACUAGCGAAAUGCUCGUCUUAUUUUUGUAGAGGUUCUAAACAUGAGGAUCACCCAUGUAGUGGUUUUUGUGGAGGUA [JR_SV3TOV2_Sub071] (puzzle: Sensor v3, turn-off variant 2)	–	–	–	apparent KD of MS2 coat protein [3]: 222 nM; apparent KD of MS2 coat protein [4]: 349 nM
UAUUAGAGAGGAUAUAUGAUGUGAAACAUGAGGAUCACCCAUGUAAUAUUAUGGAUGUAAAUAGAAGGCUCAUUUA [Mat - Exclusion 5 - JL mod - D15] (puzzle: Exclusion 5)	–	–	–	apparent KD of MS2 coat protein [3]: 47.4 nM; apparent KD of MS2 coat protein [2]: 77.5 nM; apparent KD of MS2 coat protein [4]: 80.2 nM
UCUCAGUUAGGAUAUUUAAUGUGCCGUGAGGACACGCCUUUGAAGAAGGGACAUGAGGAUCACCCAUGUGAGUA [Eternabot (L2) Solution 44] (Eterna round: R97, puzzle: Exclusion 4)	47.3	–	26.3	–
GUCGCUUUUUGUUUGUUUUACAUGAGGAUCACCCAUGUACGUUGGUUACAAUAAAGUUCCGUGGCGGAUCAAUCUGA [Eternabot (L1) Solution 12] (Eterna round: R97, puzzle: Sensor, turn-off variant 1)	24.9	–	28.2	–
UUGUACCGGUGAGGAUAUUUUUAAUAGAACUUUAUGAUAUACAUGAGGAUCACCCAUGUUACUUUAAAGAAGGCAUCGGAUUAU [JL JR Sub091 mod 1] (Eterna round: R96, puzzle: Exclusion NG 2)	–	12.9	–	–
CCUCUGGUAGGAUAUACUGGUGGCGGCAUUAUCGUGAAGGUACAUGAGGAUCACCCAUGUAGAAGGGCUCAAGU [Eternabot (L2) Solution 83] (Eterna round: R97, puzzle: Exclusion 2)	38.3	–	37.1	–
